Target: IGF-1R of the transfected cells of Example 10 (confocal microscopy) (Homo sapiens (Human)) (UniProt P08069)
Test: confocal microscopy, colocalization in cells transfected in the presence of the small molecule NSC 250435

- percentage of interaction: 30%
Substance: GFP-fused FAK-NT2 (a.a. 127-243)
